TDCC Average EC50 [M], OVCAR8 cells, human T cells data for 28 molecules are collected here from patent US20200289646A1.

Changes are numbered by the printed parent chain.

In the assay the target is human mesothelin (MSLN) (human) (UniProt Q13421). Briefly: cell-based or functional assay.
Sequence of human mesothelin (MSLN) (human) (Q13421 296-606 limits assumed): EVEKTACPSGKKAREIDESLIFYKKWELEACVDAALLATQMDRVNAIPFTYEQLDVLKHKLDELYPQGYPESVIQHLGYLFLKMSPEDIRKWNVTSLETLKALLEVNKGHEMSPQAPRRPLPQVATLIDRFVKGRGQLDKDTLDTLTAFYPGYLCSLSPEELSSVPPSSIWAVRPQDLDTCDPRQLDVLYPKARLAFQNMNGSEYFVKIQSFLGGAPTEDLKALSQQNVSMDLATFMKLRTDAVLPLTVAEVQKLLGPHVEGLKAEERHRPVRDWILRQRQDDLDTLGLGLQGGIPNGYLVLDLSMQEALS

B1: MSLN targeting trispecific protein 6F3 (protein, part only; not given: Albumin and CD3 binders, linkers, part only)
chain, part: QVQPVESGGGLVQPGGSLRLSCVVSGSDFTEDAMAWYRQASGKERESVAFVSKDGKRILYLDSVRGRFTISRDIYKKTVYLQMDNLKPEDTGVYYCNSAPGAARNVWGQGTQVTVSSHHHHHH
B1 showed a TDCC Average EC50 [M], OVCAR8 cells, human T cells of 8.2e-10 M.

B2: MSLN targeting trispecific protein 2A1 (protein, part only; not given: Albumin and CD3 binders, linkers, part only)
chain, part: B1 chain, part with Y75D, V106Y
For B2, the TDCC Average EC50 [M], OVCAR8 cells, human T cells came out at 1.2e-09 M.

B3: MSLN targeting trispecific protein 7F1 (protein, part only; not given: Albumin and CD3 binders, linkers, part only)
chain, part: QVQLVESGGGLVQAGGSLRLSCAASAIGSINSMSWYRQAPGKQREPVAVITDRGSTSYADSVKGRFTISRDNAKNTVYLQMNSLKPEDTAIYTCHVIADWRGYWGQGTQVTVSSHHHHHH
In turn, B3 registered a TDCC Average EC50 [M], OVCAR8 cells, human T cells of 2.4e-12 M.

B4: MSLN targeting trispecific protein 2D1 (protein, part only; not given: Albumin and CD3 binders, linkers, part only)
chain, part: B3 chain, part with A26T, I27T, G28S, P40Q
Regarding B4, the TDCC Average EC50 [M], OVCAR8 cells, human T cells amounted to 5.2e-11 M.

B5: MSLN targeting trispecific protein 2F4 (protein, part only; not given: Albumin and CD3 binders, linkers, part only)
chain, part: B3 chain, part with A23T, A24T, A26T, I27T, G28F, K42N, D52N, S55T, K74R, N82D
As for B5, the TDCC Average EC50 [M], OVCAR8 cells, human T cells came to 7.3e-13 M.

B6: MSLN targeting trispecific protein 5D4 (protein, part only; not given: Albumin and CD3 binders, linkers, part only)
chain, part: QVQLVESGGGLVQAGGSLRLSCVASGRTDRITTMGWYRQAPGKQRELVATISNRGTSNYANSVKGRFTISRDNAKNTVYLQMNSLKPEDTAVYYCNARKWGRNYWGQGTQVTVSSHHHHHH
In the case of B6, the TDCC Average EC50 [M], OVCAR8 cells, human T cells came to 1e-09 M.

B7: MSLN targeting trispecific protein 3F2 (protein, part only; not given: Albumin and CD3 binders, linkers, part only)
chain, part: QVQIVESGGGLVQAGGSLRLSCVASGLTYSIVAVGWYRQAPGKEREMVADISPVGNTNYADSVKGRFTISKENAKNTVYLQMNSLKPEDTAVYYCHIVRGWLDERPGPGPIVYWGQGTQVTVSSHHHHHH
B7 displayed a TDCC Average EC50 [M], OVCAR8 cells, human T cells of 2.4e-08 M.

B8: MSLN targeting trispecific protein 9B1 (protein, part only; not given: Albumin and CD3 binders, linkers, part only)
chain, part: QVQLVESGGGLVQPGGSLRLSCAASGRTFSVRGMAWYRQAGNNRALVATMNPDGFPNYADAVKGRFTISWDIAENTVYLQMNSLNSEDTTVYYCNSGPYWGQGTQVTVSSHHHHHH
B8 had a TDCC Average EC50 [M], OVCAR8 cells, human T cells greater than 1e-07 M.

B9: MSLN targeting trispecific protein 6H2 (protein, part only; not given: Albumin and CD3 binders, linkers, part only)
chain, part: QVQLVESGGGLVQAGGSLRLSCAASGRTLSRYAMGWFRQAPGKERQFVAAISRSGGTTRYSDSVKGRFTISRDNAANTFYLQMNNLRPDDTAVYYCNVRRRGWGRTLEYWGQGTQVTVSSHHHHHH
The molecule B9 came in with a TDCC Average EC50 [M], OVCAR8 cells, human T cells of 2e-09 M.

B10: MSLN targeting trispecific protein 3G1 (protein, part only; not given: Albumin and CD3 binders, linkers, part only)
chain, part: QVRLVESGGGLVQAGESLRLSCAASGRPFSINTMGWYRQAPGKQRELVASISSSGDFTYTDSVKGRFTISRDNAKNTVYLQMNSLKPEDTAVYYCNARRTYLPRRFGSWGQGTQVTVSSHHHHHH
Molecule B10 showed a TDCC Average EC50 [M], OVCAR8 cells, human T cells of 4e-09 M.

B11: MSLN targeting trispecific protein 7C4 (protein, part only; not given: Albumin and CD3 binders, linkers, part only)
chain, part: QVQLVESGGGLVPSGGSLRLSCAASGATSAITNLGWYRRAPGQVREMVARISVREDKEDYEDSVKGRFTISRDNTQNLVYLQMNNLQPHDTAIYYCGAQRWGRGPGTTWGQGTQVTVSSHHHHHH
As for B11, the TDCC Average EC50 [M], OVCAR8 cells, human T cells was found to be 1e-08 M.

B12: MSLN targeting trispecific protein 2A2 (protein, part only; not given: Albumin and CD3 binders, linkers, part only)
chain, part: QVQLVESGGGLVQAGGSLTLSCAASGSTFSIRAMRWYRQAPGTERDLVAVIYGSSTYYADAVKGRFTISRDNAKNTLYLQMNNLKPEDTAVYYCNADTIGTARDYWGQGTQVTVSSHHHHHH
With B12, the TDCC Average EC50 [M], OVCAR8 cells, human T cells came to 1.6e-12 M.

B13: MSLN targeting trispecific protein 5F2 (protein, part only; not given: Albumin and CD3 binders, linkers, part only)
chain, part: B12 chain, part with T19R, S30R, A33V, Y52S, A61S, T98D, I99S, T101I
Molecule B13 displayed a TDCC Average EC50 [M], OVCAR8 cells, human T cells of 5.3e-12 M.

B14: MSLN targeting trispecific protein 7H2 (protein, part only; not given: Albumin and CD3 binders, linkers, part only)
chain, part: QVQLVESGGGLVQAGGSLRLSCAFSGTTYTFDLMSWYRQAPGKQRTVVASISSDGRTSYADSVRGRFTISGENGKNTVYLQMNSLKLEDTAVYYCLGQRSGVRAFWGQGTQVTVSSHHHHHH
B14 returned a TDCC Average EC50 [M], OVCAR8 cells, human T cells of 5.5e-12 M.

B15: MSLN targeting trispecific protein 2A4 (protein, part only; not given: Albumin and CD3 binders, linkers, part only)
chain, part: QVQLVESGGGLVQARGSLRLSCTASGRTIGINDMAWYRQAPGNQRELVATITKGGTTDYADSVDGRFTISRDNAKNTVYLQMNSLKPEDTAVYYCNTKRREWAKDFEYWGQGTQVTVSSHHHHHH
As for B15, the TDCC Average EC50 [M], OVCAR8 cells, human T cells was found to be 1.9e-09 M.

B16: MSLN targeting trispecific protein 9H2 (protein, part only; not given: Albumin and CD3 binders, linkers, part only)
chain, part: QVQLVESGGGLVQAGGSLRLSCAASGSTSSINTMYWYRQAPGKERELVAFISSGGSTNVRDSVKGRFSVSRDSAKNIVYLQMNSLTPEDTAVYYCNTYIPLRGTLHDYWGQGTQVTVSSHHHHHH
For the molecule B16, the TDCC Average EC50 [M], OVCAR8 cells, human T cells is 1.1e-12 M.

B17: MSLN targeting trispecific protein 5C2 (protein, part only; not given: Albumin and CD3 binders, linkers, part only)
chain, part: B16 chain, part with Y37F, K43E, F50T, S52N, S53R, S84R, T86K, L101Y, R102G, Y108F
On to B17, for which the TDCC Average EC50 [M], OVCAR8 cells, human T cells stood at 1.5e-12 M.

B18: MSLN targeting trispecific protein 10B3 (protein, part only; not given: Albumin and CD3 binders, linkers, part only)
chain, part: B16 chain, part with T86K, L101Y, R102G, Y108F
Turning to B18, the TDCC Average EC50 [M], OVCAR8 cells, human T cells worked out at 1.4e-12 M.

B19: MSLN targeting trispecific protein 5G2 (protein, part only; not given: Albumin and CD3 binders, linkers, part only)
chain, part: QVQLVESGGGLVQAGGSLRLSCAASGSTFGNKPMGWYRQAPGKQRELVAVISSDGGSTRYAALVKGRFTISRDNAKNTVYLQMESLVAEDTAVYYCNALRTYYLNDPVVFSWGQGTQVTVSSHHHHHH
For B19, the TDCC Average EC50 [M], OVCAR8 cells, human T cells was 3.6e-09 M.

B20: MSLN targeting trispecific protein 12D1 (protein, part only; not given: Albumin and CD3 binders, linkers, part only)
chain, part: QVRLVESGGGLVQAGGSLRLSCAASISAFRLMSVRWYRQDPSKQREWVATIDQLGRTNYADSVKGRFAISKDSTRNTVYLQMNMLRPEDTAVYYCNAGGGPLGSRWLRGRHWGQGTQVTVSSHHHHHH
In turn, B20 gave a TDCC Average EC50 [M], OVCAR8 cells, human T cells of 1.1e-09 M.

B21: MSLN targeting trispecific protein 5D2 (protein, part only; not given: Albumin and CD3 binders, linkers, part only)
chain, part: QVQLGESGGGLVQAGGSLRLSCAASGSIFSPNAMIWHRQAPGKQREPVASINSSGSTNYGDSVKGRFTVSRDIVKNTMYLQMNSLKPEDTAVYYCSYSDFRRGTQYWGQGTQVTVSSHHHHHH
For the molecule B21, the TDCC Average EC50 [M], OVCAR8 cells, human T cells was 1.4e-11 M.

B22: MSLN targeting trispecific protein 2C2 (protein, part only; not given: Albumin and CD3 binders, linkers, part only)
chain, part: QVQLVESGGGLVQAGESRRLSCAVSGDTSKFKAVGWYRQAPGAQRELLAWINNSGVGNTAESVKGRFTISRDNAKNTVYLQMNRLTPEDTDVYYCRFYRRFGINKNYWGQGTQVTVSSHHHHHH
In the case of B22, the TDCC Average EC50 [M], OVCAR8 cells, human T cells stood at 9.5e-09 M.

B23: MSLN targeting trispecific protein 4A2 (protein, part only; not given: Albumin and CD3 binders, linkers, part only)
chain, part: QVQLVESGGGLVQAGGSLRLSCAASGSTFGINAMGWYRQAPGKQRELVAVISRGGSTNYADSVKGRFTISRDNAENTVSLQMNTLKPEDTAVYFCNARTYTRHDYWGQGTQVTVSSHHHHHH
The molecule B23 had a TDCC Average EC50 [M], OVCAR8 cells, human T cells of 1.7e-09 M.

B24: MSLN targeting trispecific protein 11F3 (protein, part only; not given: Albumin and CD3 binders, linkers, part only)
chain, part: QVQLVESGGGLVQAGGSLRLSCVASGRTSTIDTMYWHRQAPGNERELVAYVTSRGTSNVADSVKGRFTISRDNAKNTAYLQMNSLKPEDTAVYYCSVRTTSYPVDFWGQGTQVTVSSHHHHHH
Consider B24, for which the TDCC Average EC50 [M], OVCAR8 cells, human T cells was found to be 2.2e-12 M.

B25: MSLN targeting trispecific protein 9F3 (protein, part only; not given: Albumin and CD3 binders, linkers, part only)
chain, part: QVQLVESGGGLVQAGGSLRLSCAASGSIPSIEQMGWYRQAPGKQRELVAALTSGGRANYADSVKGRFTISGDNVRNMVYLQMNSLKPEDTAIYYCSAGRFKGDYAQRSGMDYWGKGTLVTVSSHHHHHH
B25 displayed a TDCC Average EC50 [M], OVCAR8 cells, human T cells greater than 1e-07 M.

B26: MSLN targeting trispecific protein 3B4 (protein, part only; not given: Albumin and CD3 binders, linkers, part only)
chain, part: QVQLVESGGGLVQAGGSLRLSCVASGSTSNINNMRWYRQAPGKERELVAVITRGGYAIYLDAVKGRFTISRDNANNAIYLEMNSLKPEDTAVYVCNADRVEGTSGGPQLRDYFGQGTQVTVSSHHHHHH
B26 came in with a TDCC Average EC50 [M], OVCAR8 cells, human T cells of 1.8e-12 M.

B27: MSLN targeting trispecific protein 5H1 (protein, part only; not given: Albumin and CD3 binders, linkers, part only)
chain, part: QVQLVESGGGLVQPGGSLRLSCAASGGDWSANFMYWYRQAPGKQRELVARISGRGVVDYVESVKGRFTISRDNAKNTVYLQMNSLKPEDTAVYYCAVASYWGQGTQVTVSSHHHHHH
Molecule B27 came in with a TDCC Average EC50 [M], OVCAR8 cells, human T cells of 5.9e-12 M.

B28: MSLN targeting trispecific protein 12C2 (protein, part only; not given: Albumin and CD3 binders, linkers, part only)
chain, part: QVQLVESGGGLVQTGGSLRLSCAASGLTFGVYGMEWFRQAPGKQREWVASHTSTGYVYYRDSVKGRFTISRDNAKSTVYLQMNSLKPEDTAIYYCKANRGSYEYWGQGTQVTVSSHHHHHH
B28 showed a TDCC Average EC50 [M], OVCAR8 cells, human T cells of 8e-13 M.
